# Laboratory results as given in patent US20120238493A1 (INDIANA UNIVERSITY RESEARCH AND TECHNOLOGY, published 2012).
# Like-named read-outs stand apart in the source and are kept apart here. *1 amine or outer side, *2 acyl side, *3 side chain or, on linkers, in order; H or OH if unused. Where no end group is shown, it is not given here. Side-chain parts run from the residue outwards. [ ]: non-standard residue; d: D form. The star is where a group is joined. γGlu = O=C(O)[C@H](CCC(=O)[*:2])N[*:1]; Palmitoyl = CCCCCCCCCCCCCCCC(=O)*; Aib = CC(C)(N)C(=O)O
# What was measured:
# Test in all cases: cell-based or functional assay
# [1] = target: T1, GIP receptor (UniProt P48546 22-466, limits assumed)
# T1 sequence (looked up): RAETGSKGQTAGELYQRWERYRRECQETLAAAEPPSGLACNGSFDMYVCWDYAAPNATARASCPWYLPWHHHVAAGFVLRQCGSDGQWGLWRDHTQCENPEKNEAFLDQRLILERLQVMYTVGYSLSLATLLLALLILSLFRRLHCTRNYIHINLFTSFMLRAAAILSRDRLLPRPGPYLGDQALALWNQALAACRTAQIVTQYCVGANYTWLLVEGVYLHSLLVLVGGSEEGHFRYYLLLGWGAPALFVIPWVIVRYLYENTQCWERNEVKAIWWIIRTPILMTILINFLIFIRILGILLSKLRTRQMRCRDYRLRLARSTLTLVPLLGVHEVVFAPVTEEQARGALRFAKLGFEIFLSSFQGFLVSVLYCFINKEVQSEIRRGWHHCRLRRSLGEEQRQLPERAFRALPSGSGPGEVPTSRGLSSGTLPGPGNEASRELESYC
# [2] = target: T1, GIP receptor; remark: listed apart in the source
# [3] = target: T2, GLP-1 receptor (UniProt P43220 24-463, limits assumed)
# [4] = target: T3, glucagon receptor (UniProt P47871 26-477, limits assumed)
# [5] = target: T1, GIP receptor; remark: listed apart in the source
# [6] = target: T2, GLP-1 receptor; remark: listed apart in the source
# [7] = target: T3, glucagon receptor; remark: listed apart in the source
# [8] = target: T1, GIP receptor; remark: listed apart in the source
# [9] = target: T2, GLP-1 receptor; remark: listed apart in the source
# [10] = target: T3, glucagon receptor; remark: listed apart in the source
# [11] = target: T1, GIP receptor; remark: listed apart in the source
# [12] = target: T2, GLP-1 receptor; remark: listed apart in the source
# Target sequence in this assay (P43220 24-463 limits assumed): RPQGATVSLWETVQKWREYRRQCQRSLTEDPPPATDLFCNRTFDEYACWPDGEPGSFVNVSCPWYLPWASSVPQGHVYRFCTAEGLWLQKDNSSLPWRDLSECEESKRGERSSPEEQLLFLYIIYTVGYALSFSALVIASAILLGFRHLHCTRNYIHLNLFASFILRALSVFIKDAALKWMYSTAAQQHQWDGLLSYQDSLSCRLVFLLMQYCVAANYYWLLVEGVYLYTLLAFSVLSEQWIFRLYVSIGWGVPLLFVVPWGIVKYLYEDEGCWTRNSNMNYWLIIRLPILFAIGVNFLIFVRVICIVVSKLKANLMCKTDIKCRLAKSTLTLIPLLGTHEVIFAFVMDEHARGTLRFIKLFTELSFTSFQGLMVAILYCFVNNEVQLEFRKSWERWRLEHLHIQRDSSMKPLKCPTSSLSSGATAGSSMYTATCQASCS
# [13] = target: T3, glucagon receptor; remark: listed apart in the source
# [14] = target: T1, GIP receptor; remark: listed apart in the source
# [15] = target: T2, GLP-1 receptor; remark: listed apart in the source
# [16] = target: T3, glucagon receptor; remark: listed apart in the source
# [17] = target: T1, GIP receptor; remark: listed apart in the source
# [18] = target: T2, GLP-1 receptor; remark: listed apart in the source
# [19] = target: T3, glucagon receptor; remark: listed apart in the source
# [20] = target: T1, GIP receptor; remark: listed apart in the source
# [21] = target: T2, GLP-1 receptor; remark: listed apart in the source
# [22] = target: T3, glucagon receptor; remark: listed apart in the source
# [23] = target: T1, GIP receptor; remark: listed apart in the source
# T3 sequence (P47871 26-477 limits assumed): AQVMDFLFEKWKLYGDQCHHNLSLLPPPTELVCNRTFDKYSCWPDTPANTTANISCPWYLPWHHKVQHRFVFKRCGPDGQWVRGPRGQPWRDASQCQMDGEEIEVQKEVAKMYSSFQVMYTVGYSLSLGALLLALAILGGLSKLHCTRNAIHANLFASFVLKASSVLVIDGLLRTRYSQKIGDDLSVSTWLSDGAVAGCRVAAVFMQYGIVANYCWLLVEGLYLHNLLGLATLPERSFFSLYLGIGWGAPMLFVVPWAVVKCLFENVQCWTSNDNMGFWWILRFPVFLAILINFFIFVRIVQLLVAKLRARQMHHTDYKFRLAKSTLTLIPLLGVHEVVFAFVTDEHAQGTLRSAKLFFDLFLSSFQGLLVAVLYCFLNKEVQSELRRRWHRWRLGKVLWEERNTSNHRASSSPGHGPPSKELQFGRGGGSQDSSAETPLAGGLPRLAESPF
Molecule,EC50 (cAMP reporter) [3] [pM],EC50 (cAMP reporter) [4] [pM],EC50 (cAMP reporter) [5] [pM],EC50 (cAMP reporter) [6] [pM],EC50 (cAMP reporter) [7] [pM],EC50 (cAMP reporter) [8] [pM],EC50 (cAMP reporter) [9] [pM],EC50 (cAMP reporter) [10] [pM],EC50 (cAMP reporter) [11] [pM],further results
Native GIP (SEQ ID NO: 2) (from UniProt P09681 52-93) (ligand),,,,,,,,,,EC50 (cAMP reporter) [1]: 6.5 pM; EC50 (cAMP reporter) [2]: 10 pM
H[Aib]QGTFTSDYSKYLDERAAQDFVQWLLDGGPSSGAPPPSK([γGlu-γGlu-Palmitoyl])G-NH2 (not fully specified) [peptide of SEQ ID NO: 89],5,6,28,4,4,20,2.1,4.1,24,
H[Aib]QGTFTSDYSIYLDEKRAKEFVCWLLAGGPSSGAPPPSK-NH2 (N-terminus assumed; SMILES CC[C@H](C)[C@H](NC(=O)[C@H](CO)NC(=O)[C@H](Cc1ccc(O)cc1)NC(=O)[C@H](CC(=O)O)NC(=O)[C@H](CO)NC(=O)[C@@H](NC(=O)[C@H](Cc1ccccc1)NC(=O)[C@@H](NC(=O)CNC(=O)[C@H](CCC(N)=O)NC(=O)C(C)(C)NC(=O)[C@@H](N)Cc1c[nH]cn1)[C@@H](C)O)[C@@H](C)O)C(=O)N[C@@H](Cc1ccc(O)cc1)C(=O)N[C@@H](CC(C)C)C(=O)N[C@@H](CC(=O)O)C(=O)N[C@@H](CCC(=O)O)C(=O)N[C@@H](CCCCN)C(=O)N[C@@H](CCCNC(=N)N)C(=O)N[C@@H](C)C(=O)N[C@@H](CCCCN)C(=O)N[C@@H](CCC(=O)O)C(=O)N[C@@H](Cc1ccccc1)C(=O)N[C@H](C(=O)N[C@@H](CS)C(=O)N[C@@H](Cc1c[nH]c2ccccc12)C(=O)N[C@@H](CC(C)C)C(=O)N[C@@H](CC(C)C)C(=O)N[C@@H](C)C(=O)NCC(=O)NCC(=O)N1CCC[C@H]1C(=O)N[C@@H](CO)C(=O)N[C@@H](CO)C(=O)NCC(=O)N[C@@H](C)C(=O)N1CCC[C@H]1C(=O)N1CCC[C@H]1C(=O)N1CCC[C@H]1C(=O)N[C@@H](CO)C(=O)N[C@@H](CCCCN)C(N)=O)C(C)C) [peptide of SEQ ID NO: 230],,,,,,,,,,EC50 (cAMP reporter) [12]: 222 pM; EC50 (cAMP reporter) [13]: 1640 pM; EC50 (cAMP reporter) [14]: 164 pM
"H[Aib]QGTFTSDK([γGlu-Palmitoyl])SKYLDERAAQDFVQWLLDGGPSSGAPPPS-NH2 [Analog No. 30: Aib2, K10acyl, E16, A18, L27, D28, G29 + CEX (SEQ ID NO: 28)]",4,3,4,2,2,2,2,2,3,"EC50 (cAMP reporter) [15]: 2 pM; EC50 (cAMP reporter) [16]: 2 pM; EC50 (cAMP reporter) [17]: 3 pM; EC50 (cAMP, nmole) [18]: 0.003 nmol; EC50 (cAMP, nmole) [19]: 0.004 nmol; EC50 (cAMP, nmole) [20]: 0.007 nmol; activity (cAMP reporter), column GLP [21]: 0.002; activity (cAMP reporter), column Glu [22]: 0.002; activity (cAMP reporter), column GIP [23]: 0.003"
